Results: patent publication US6958236B2, “Control of gene expression in plants” (priority 2000, dated 2005)

System: pCGS206 (luciferase reporter with response elements for the GAL4 DNA binding domain)
Assay: Maize BMS cells bombarded with GAL4 luciferase reporter and receptor vector, GUS-normalized luciferase
Type: cell-based
Conditions: for Normalized Average (EtOH): unliganded background
Experimental: (§1) Maize BMS (Black Mexican Sweet) cultured cells are transfected with pCGS206 and pCGS208 by high velocity microprojectile bombardment. In addition, an expression plasmid containing the maize ubiquitin promoter driving the expression of β-glucuronidase (GUS) is added to the transfection to serve as an internal control to normalize against variations among the samples.
(§2) Transfections are treated and cell lysates are made essentially as described in U.S. Pat. No. 5,880,333. […] Both luciferase and GUS assays are performed with 20 μl of cell lysate for each assay using the Promega Luciferase Kit (Promega cat #E1500) and GUS-Light Kit (Tropix) respectively. Relative light units are determined using a Turner Designs TD 20/20 luminometer.
In addition to tebufenozide, methoxytebufenozide (“MethoxyTeb”) is also capable of inducing gene expression in maize BMS cells. Both pCGS206 and pCGS208 are transfected as described above and methoxytebufenozide is added in place of tebufenozide at 25 μM and 10 μM.
Maize BMS cells are transfected and assayed as in Example 12.
as §1, with “Transformation of maize suspension cells, chemical treatment, and reporter activity assays are performed as described in Example 12. Maize” for “Maize”, “pCGS206 (pBS-bz1TATA/intronLUC), pCGS203 (G(M)MV), pCGS672 (G(M)MC),” for “pCGS206”, “pCGS678 (G(M)MD)” for “pCGS208”
as §2, with “Maize BMS cells are bombarded with reporter vector pCGS206 and chimeric receptors and treated with tebufenozide essentially as described in Example 12. Transfections” for “Transfections”, “units (RLU)” for “units”

[1] = Example 24, Experiment 1, 20 μM Teb
[2] = Example 24, Experiment 1, BMS cells
[3] = Example 24, Experiment 2, 20 μM Teb
[4] = Example 24, Experiment 2, BMS cells
[5] = Example 26, + 10 μM Teb vs without
[6] = Example 26, BMS cells, reporter pCGS206, no ligand
[7] = Example 28, BMS cells, reporter pCGS206, no ligand, GUS-normalized

| Molecule | average fold activation of the Manduca G(M)MV EcR (ubi/GAL4-MV) (maize BMS cells, methoxytebufenozide 25 μM and 10 μM) [fold] | Fold Induction with Teb Relative to Receptor with EtOH [1] [fold] | Fold Induction with Teb Relative to Reporter with EtOH [1] [fold] | Normalized Average (EtOH) [2] | Fold Induction with Teb Relative to Receptor with EtOH [3] [fold] | Fold Induction with Teb Relative to Reporter with EtOH [3] [fold] | Normalized Average (EtOH) [4] | Experiment #1 Luciferase (Example 26, + 10 μM Teb) | Experiment #2 Luciferase (Example 26, + 10 μM Teb) | Experiment #1 Fold Induction [5] [fold] | Experiment #2 Fold Induction [5] [fold] | Experiment #1 Luciferase [6] | Experiment #2 Luciferase [6] | Experiment #1 RLU [7] [RLU] | Experiment #2 RLU [7] [RLU] | average fold induction with tebufenozide (maize BMS cells, 10 μM tebufenozide, average of assays) [fold] | rank of fold induction among D+E domain combinations (Example 24, BMS cells, 20 μM Teb) |
| --- | --- | --- | --- | --- | --- | --- | --- | --- | --- | --- | --- | --- | --- | --- | --- | --- | --- |
| COc1cccc(C(=O)NN(C(=O)c2cc(C)cc(C)c2)C(C)(C)C)c1C [methoxytebufenozide, reference compound] | 25 |  |  |  |  |  |  |  |  |  |  |  |  |  |  |  |  |
| G(M)BV: EcR chimera: GAL4 DBD, Manduca sexta D domain, black cutworm E domain, VP16; SEQ ID NO:118-119 (protein) MQQLYVDFFSPAFIRYLFAWYCFFCRCSPCCLVLLLQGSATMKLLSSIEQACDICRLKKLKCSKEKPKCAKCLKNNWECRYSPKTKRSPLTRAHLTEVESRLERLEQLFLLIFPREDLDMILKMDSLQDIKALLTGLFVQDNVNKDAVTDRLASVETDMPLTLRQHRISATSSSEESSNKGQRQLTVSTRMRPECVVPESTCKNKRREKEAQREKDKLPVSTTTVDDHMPAIMQCDPPPPEAARIHEVVPRFLTEKLMEQNRLKNVTPLSANQKSLIARLVWYQEGYEQPSEEDLKRVTQTWQSDEDEEESDMPFRQITEMTILTVQLIVEFAKGLPGFAKISQSDQITLLKACSSEVMMLRVARRYDAATDSVLFANNQAYSRDNYRKAGMSYVIEDLLHFCRCMYSMMMDNVHYALLTAIVIFSDRPGLEQPLLVEEIQRYYLNTLRVYILNQNSASPRCPVVFAKILGILTELRTLGMQNSNMCISLKLKNRKLPPFLEEIWDVESRGKLAPPTDVSLGDELHLDGEDVAMAHADALDDFDLDMLGDGDSPGPGFTPHDSAPYGALDMADFEFEQMFTDALGIDEYGG |  | 34 | 81 | 8.701 | 26 | 95 | 1.539 |  |  |  |  |  |  |  |  |  |  |
| G(M)FV: EcR chimera: GAL4 DBD, Manduca sexta D domain, fall armyworm E domain, VP16; SEQ ID NO:122-123 (protein) MQQLYVDFFSPAFIRYLFAWYCFFCRCSPCCLVLLLQGSATMKLLSSIEQACDICRLKKLKCSKEKPKCAKCLKNNWECRYSPKTKRSPLTRAHLTEVESRLERLEQLFLLIFPREDLDMILKMDSLQDIKALLTGLFVQDNVNKDAVTDRLASVETDMPLTLRQHRISATSSSEESSNKGQRQLTVSTRMRPECVVPESTCKNKRREKEAQREKDKLPVSTTTVDDHMPAIMQCDPPPPEAARIHEVVPRFLTEKLMEQNRLKNVTPLSANQKSLIARLVWYQEGYEQPSEEDLKRVTQTWQLEEEEEEETDMPFRQITEMTILTVQLIVEFAKGLPGFSKISQSDQITLLKASSSEVMMLRVARRYDAATDSVLFANNQAYTRDNYRKAGMSYVIGDLLHFCRCMYSMSMDNVHYALLTAIVIFSDRPGLEQPLLVEEIQRYYLKTLRVYILNQYSASPRCAVLFGKILGVLTELRTLGTQNSNMCISLKLKNRKLPPFLEEIWDVKLAPPTDVSLGDELHLDGEDVAMAHADALDDFDLDMLGDGDSPGPGFTPHDSAPYGALDMADFEFEQMFTDALGIDEYGG |  | 51 | 52 | 3.766 | 24 | 57 | 0.484 |  |  |  |  |  |  |  |  |  |  |
| G(M)MV: EcR chimera: GAL4 DNA binding domain, Manduca sexta D and E domains, VP16; SEQ ID NO:104-105 (protein, (1)..(3972) GAL4-Manduca EcR-VP16 fragment in pCGS202) MKLLSSIEQACDICRLKKLKCSKEKPKCAKCLKNNWECRYSPKTKRSPLTRAHLTEVESRLERLEQLFLLIFPREDLDMILKMDSLQDIKALLTGLFVQDNVNKDAVTDRLASVETDMPLTLRQHRISATSSSEESSNKGQRQLTVSTRMRPECVVPESTCKNKRREKEAQREKDKLPVSTTTVDDHMPAIMQCDPPPPEAARIHEVVPRFLTEKLMEQNRLKNVTPLSANQKSLIARLVWYQEGYEQPSEEDLKRVTQTWQLEEEEEEETDMPFRQITEMTILTVQLIVEFAKGLPGFSKISQSDQITLLKASSSEVMMLRVARRYDAATDSVLFANNQAYTRDNYRKAGMSYVIEDLLHFCRCMYSMSMDNVHYALLTAIVIFSDRPGLEQPLLVEEIQRYYLKTLRVYILNQHSASPRCAVLFGKILGVLTELRTLGTQNSNMCISLKLKNRKLPPFLEEIWDVAEVSTTKLAPPTDVSLGDELHLDGEDVAMAHADALDDFDLDMLGDGDSPGPGFTPHDSAPYGALDMADFEFEQMFTDALGIDEYGG |  | 44 | 83 | 6.889 | 15 | 61 | 1.721 | 99.49 | 136.41 | 16.7 | 35.1 | 5.97 | 3.89 | 3.73 | 3.17 | 36 |  |
| G(M)EV: EcR chimera: GAL4 DBD, Manduca sexta D domain, European corn borer E domain, VP16; SEQ ID NO:120-121 (protein) MQQLYVDFFSPAFIRYLFAWYCFFCRCSPCCLVLLLQGSATMKLLSSIEQACDICRLKKLKCSKEKPKCAKCLKNNWECRYSPKTKRSPLTRAHLTEVESRLERLEQLFLLIFPREDLDMILKMDSLQDIKALLTGLFVQDNVNKDAVTDRLASVETDMPLTLRQHRISATSSSEESSNKGQRQLTVSTRMRPECVVPESTCKNKRREKEAQREKDKLPVSTTTVDDHMPAIMQCDPPPPEAARIHEVVPRFLTEKLMEQNRLKNVTPLSANQKSLIARLVWYQDGYEQPSEEDLKRVTQTWQSADEEDEDSDMPFRQITEMTILTVQLIVEFAKGLPGFSKISQPDQITLLKACSSEVMMLRVARRYDAVSDSVLFANNQAYTRDNYRKAGMAYVIEDLLHFCRCMYSMSMDNVHYALLTAIVIFSDRPGLEQPQLVEEIQRYYLNTLRVYIMNQHSASPRCAVIYAKILSVLTELRTLGMQNSNMCISLKLKNRKLPPFLEEIWDVKLAPPTDVSLGDELHLDGEDVAMAHADALDDFDLDMLGDGDSPGPGFTPHDSAPYGALDMADFEFEQMFTDALGIDEYGG |  | 63 | 119 | 6.965 | 58 | 139 | 0.028 |  |  |  |  |  |  |  |  |  | highest fold induction |
